Source: the nanobody polyreactivity screen of Harvey et al. (2022)

Experiment: yeast display, Sf9 membrane polyspecificity reagent, FACS + sequencing; frameworks hold sequencing errors
Summary of the method: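 Genes from sorted yeast were amplified by colony PCR, read by MiSeq 2 × 250 sequencing and filtered on CDR length. These cells carried a synthetic nanobody library in Saccharomyces cerevisiae BJ5465 and were sorted by FACS into low and high (top ~1%) gates on anti-HA and streptavidin fluorescence. Polyreactivity is labelled according to the gate of origin.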

| Sequence | polyreactivity (PSR sort gate) |
| --- | --- |
| QVQLVESGGGLVQAGGSLRLSCDASGSIFQAYAIGWYRQAPGKEREFVAVITWGGGSTSYADSVKGRFTISRDNAKNTVYLQMNSLKPEDTAVYYCNADSQEWIWLYEGYDYWGQGTQVTVSS | low polyreactivity |
| QVQLVESGGGLVQAGGSLRLSCDASGSIFSTYVMGWYRQAPGKERELVAAITVSVGSTYYADSVKGRFTISRDNAKNTVYLQMNSLKPEDTAVYYCAAGSYSRYLYSLYFDFDYWGQGTQVTVSS | low polyreactivity |
| QVQLVESGGGLVQAGGSLRLSCDASGSIFYIYAMGWSRQAPGKERELVATISGSGGSTHYADSVKGRFTISRDNAKNTVYLQMNSLKPEDTAVYYCDADVLPYGYYWGQGTQVTVSS | low polyreactivity |
| QVQLVESGGGLVQAGGSLRLSCDASGSIFYRNVMGWYRQAPGKERELVAAISGRGGSTYYADSVKGRFTISRDNAKNTVYLQMNSLKPEDTAVYYCAADKGYRYISYYYWGQGTQVTVSS | high polyreactivity |
| QVQLVESGGGLVQAGGSLRLSCDASGSIIIGNSMGWYRQAPGKERELVAVINGSDGTTYYADSVKGRFTISRDNAKNTVYLQMNSLKPEDTAVYYCNADFIDPSVYDYNYWGQGTQVTVSS | low polyreactivity |
| QVQLVESGGGLVQAGGSLRLSCDASGSILRYYAMGWYRQAPGKERELVADISTSGGSTYYADSVKGRFTISRDNAKNTVYLQMNSLKPEDTAVYYCAKPWYSSGFDYWGQGTQVTVSS | high polyreactivity |
| QVQLVESGGGLVQAGGSLRLSCDASGSTFAPNTMGWYRQAPGKVREFVADISFSGGSTYYADSVKGRFSISRDNAKNTVYLQMTSRKPEDTAVYYCNAYYSYWFTQYDYWGQGTQVTVSS | high polyreactivity |
| QVQLVESGGGLVQAGGSLRLSCDASGSTFDSYAMGWYRQAPGKERELVAAINQGGGSTYYADSVKGRFTISRDNAKNTVYLQMNSLKPEDTAVYYCGADRSGSFYKLDYWGQGTQVTVSS | low polyreactivity |
| QVQLVESGGGLVQAGGSLRLSCDASGSTFGRNAMGCYRQAPGKESELVAAITASGGRTYYADSVKGRFTISRDNAKNTVYLQMNSLKPEDTAVYYCAAASRVGFLYYYWGQGTQVTLSS | low polyreactivity |
| QVQLVESGGGLVQAGGSLRLSCDASGSTFKNYAMGWYRQAPGKERELVAGINWYGGRTYYADSVKGRFTISRDNAKNTVFLQMNSLKPEDTAVYYCAAALPGYGDYYYWGQGTQVTVSS | high polyreactivity |
| QVQLVESGGGLVQAGGSLRLSCDASGSTFRANAMGWYRQAPGKECELVAAISQSGGITYYADSVKGRFTISRDNAKNTVYLQMNCLKPEDTAVYYCAAKGSYSYDVGGPVYQRTYGYWGQGTQVTVSS | high polyreactivity |
| QVQLVESGGGLVQAGGSLRLSCDASGSTFRHYAMGWYRQAPGKERELVAAISSTGGSTYYADSVKGRFTISRDNAKNTVYLQMNSLKPEDTAVSYCAARRLYWGQGTQVTVSS | high polyreactivity |
| QVQLVESGGGLVQAGGSLRLSCDASGSTFTRYVMGGYRQPPGKERELVAVISSSAGSTYYADSVKGRFTISRDNAKNTVYLQMNSLKPEDTAVYYCAARYSAKHYGYGYWGQGTQVTVSS | high polyreactivity |
| QVQLVESGGGLVQAGGSLRLSCDASGTFYGKTMGWYRQAPGKERELVAVISIDGSTNYADSVKGRFTISRDNAKNTVYLQMNSLKPEDTAVYYCNARNQWRTVGKYDYWGQGTQVTVSS | low polyreactivity |
| QVQLVESGGGLVQAGGSLRLSCDPSGSIFYRNAMVWYRPAPGKERELVATITVNGGRTYYADSVKGRFTISRDNAKNTVYLQMNSLKPEDTAVYYCAKDVHRWYPYDYWGQGTQVTVSS | low polyreactivity |
| QVQLVESGGGLVQAGGSLRLSCDPSGYTLVDYAMGWYRQAPGKESELVAGISSGDSTYYADSVKGRFTISRDNAKNTVYLQMNSLKPEDTAVYYCNAGLKTIFLLYRWTLFDYWGQGTQVTVSS | high polyreactivity |
| QVQLVESGGGLVQAGGSLRLSCDSSGSIFGYYAMGWYRQAPGKERELVAAITSGGNTYYADSVKGRFTISRDNAKNTVYLQMNSLKPEDTAVYYCNAVWRTRDYDYWGQGTQVTVSS | low polyreactivity |
| QVQLVESGGGLVQAGGSLRLSCDSSGSIFYYYAMGWYRQAPGKERELVAAISRRGGSTYYADSVKVRFTISRDNAKNTVYLQMNSLKPVDTAVYYCAADSPRGYDYWGQCTQVTVSS | high polyreactivity |
| QVQLVESGGGLVQAGGSLRLSCEASGRIFGWYAMGWYRQAPGNERELVAALTNSGGSTYYADSVKGRFTISRDYEKNTVYFQMNRLKPEDTGVYFCAAESWIRRWYGGGKKYEYWGQGTQVTVSS | high polyreactivity |
| QVQLVESGGGLVQAGGSLRLSCGASGFTFRSYAMGWYRQAPGKEGELVATISSGGTTKYADSVQGRFTISRDNANNTVYLQMNSLKPEDTAVYYCAARTSVLGRNFNYWGQGTQVTVSS | high polyreactivity |
| QVQLVESGGGLVQAGGSLRLSCGASGFTFYGYAMGWYRHGPGKESELVAAITGSGARTNYADSVKGRFTISRDKAKNTVYLQMNSLKPEDTAVYYCNKVGVTRDGSTYRVREDDYWGQGTQVTVSS | high polyreactivity |

| Sequence | polyreactivity (PSR sort gate) |
| --- | --- |
| QVQLVESGGGLVQAGGSLRLSCGASGFTIQRNAIVWSRQAPGKERELVAAITRGGSTYYADSVKGRFTISRDNAKNTVYLQMNSLKPEDTAVYYCAKRIFSSYIGYGYWGQGTQVTVSS | high polyreactivity |
| QVQLVESGGGLVQAGGSLRLSCGASGLTFVWYGMGWYRQAPGKERELVAAITRGGSTYYADSVKGRFTISRDNAKNTVYLQMNSVKPEDTAVYYCAARYKYTGYDYWGQGTQVTVSS | high polyreactivity |
| QVQLVESGGGLVQAGGSLRLSCGASGRIFRYYAMGWYRQAPGTDREVVAAITQRGGSTYADSVKGRFTISRDNAKKTVYLQMNSLKPEDTADYSCPYRGSFLYDYWGQGTQVTVSS | low polyreactivity |
| QVQLVESGGGLVQAGGSLRLSCGASGRIFSYYAMGWYRQAPGKERELVAAINTGGDTYYADSVKGRFTISRDNAKNTVYLQMNSLKPEDTAVYYCAAAYGWGYYYGYGYTPTYDYWGQGTQVTVSS | low polyreactivity |
| QVQLVESGGGLVQAGGSLRLSCGASGRIIGYNAMGWYRQAPGKERELVAVISTSGTITYYADSVKGRFTISRDNAKNTVYLQMNRLKPEDTAVYYCAARYYQRANGFGYCGQGTQVTVSS | low polyreactivity |
| QVQLVESGGGLVQAGGSLRLSCGASGRTFRPYAMGWYRQEPGKERELVAAITGGTRTYYADSVKGRFTISRDNAKNTVYLQMNSLKAEDTAVYYCAVGWAGRYDYWGQGTQVTVSS | low polyreactivity |
| QVQLVESGGGLVQAGGSLRLSCGASGSNFWPNTMGWYRPAPGKERELVAGISFGGGSTYFADSVKGRFTISRDNAKNTVYLEMNRQKPEDTAVYYCNADDPGYAGPWYWVKYDYWGKGTQVTVSS | low polyreactivity |
| QVQLVESGGGLVQAGGSLRLSCGASGSTFGTYAMGWYRQAPGKERELVAAISWSGGSTYYADSVKGRFTISRDNAKNTVYLQMNSLNPEDTAVYWGQGTQVTVSS | low polyreactivity |
| QVQLVESGGGLVQAGGSLRLSCGASGSTFWWNAMGWYRQAPGKEREFVAAITARGTSTYYADSVKGRFTISRDNAKNTVYLQMNRLKPEDTAVYYCNTRLYGRYYSWYDYWGQGTQVTVSS | high polyreactivity |
| QVQLVESGGGLVQAGGSLRLSCGATGSIFKTYAMGWYRQAPGKERELVAAISQRGGSTYYADSVKGRFTISRDNAKNTVYLQMNSLKPEDTAVYYCAARYAYQSYLYRFDYWGQGTQVTVSS | high polyreactivity |
| QVQLVESGGGLVQAGGSLRLSCGAYGRTFRLYAMGWYRQAPAKERELVAAITRGGRTTYADSVKGRFTSSRDNAQNTVYLQMNSLKPEDTAVYYCAARYVERQTDYYYWGQGTQVTVSS | low polyreactivity |
| QVQLVESGGGLVQAGGSLRLSCGGSGNSFNSYALGWYRQAPGKEREFVAAISGSGSSTYYADSVMGRFTISRDNAKNTVYLQINSLKPEDTAVYYCAVPYYKRYIWSNRDYWGQGTQVTVSS | high polyreactivity |
| QVQLVESGGGLVQAGGSLRLSCGGSGRIFYSNAMGWYRQAPGKERELFAAIRYSGVRTYYADSLKGRFTISLDNEKNTVYLQMNSLNPEYTEVYYCNVYSRTHYQTYTDDYWGQGTQVNVSS | high polyreactivity |
| QVQLVESGGGLVQAGGSLRLSCGSSGSIFKTNAMGWYRQAPGKERELVAANTWRGGSTYYADSVKGRFTNSRDNAKNTVYLQRNSLKPEDTAVYYCAARQYYGAASYRYYYWGQGTQVTVSS | high polyreactivity |
| QVQLVESGGGLVQAGGSLRLSCHASGRIIVPYVMGWYRQAPGKERELVASISDSDTSTYYADSVKGRFTMSRDNAKNTVYLQMNSLKPEDTAVYYCNVDFWGQGTQVTVSS | low polyreactivity |
| QVQLVESGGGLVQAGGSLRLSCPASGFIFRRYVMGWYRQSPGKERELVAAISKSAVNTYYADSVKGRFTISRDNAKNTVYLQMNSLIPEDTEVYYCNKYGYKGGVGYDYWGQGTQVTVSS | high polyreactivity |
| QVQLVESGGGLVQAGGSLRLSCPASGFILQYNAMGWYRQAPGKERELVAAITRSGVSTHYADSVKGRFTISRDNAKNTVYLQMNSLKPEDTAVYYCARTGHSLYSRYYYWGQGTQVTVSS | low polyreactivity |
| QVQLVESGGGLVQAGGSLRLSCPASGFILYPYAMGWYRQAPGKERELVAAITSRGGRTYYADSVKGRFTISRDNAKNTVYLQMNSLKPEDTAVYYCAAKRTSYYAPLKYYSWGQGTQVTVSS | high polyreactivity |
| QVQLVESGGGLVQAGGSLRLSCPASGFTFGRYGMGWYRQAPGKERELVAGITWSGGSTSYADSVKGRFTISRDNAKNTVYLQMYSLIPEDTAVYYCATRARYTRVHGRRYAYDYWGQGTQVTVSS | high polyreactivity |
| QVQLVESGGGLVQAGGSLRLSCPASGFTFYRYAMGWYRQAPGKERELVASISWRGGNTYYADSVKGRFTISRDNEKNTVYLQMNSLKPEDTAVYYCAARGGVLKGYYYWGQGTQVTVSS | high polyreactivity |
